According to US20080032929A1:

Key:
[1] = target: rabbit α-tropomyosin purified from ventricular muscle (rabbit) (UniProt P58772); assay: ELISA solid phase protein binding: cTnT coated, serial dilutions of rabbit α-tropomyosin, detected with mAb CH1; concentration of tropomyosin for 50% maximum binding
[2] = target: bovine cardiac troponin I purified from ventricular muscle (bovine) (UniProt P08057); assay: ELISA solid phase protein binding: cTnT coated, serial dilutions of bovine cardiac TnI, detected with mAb TnI-1; concentration of TnI required to reach 50% of maximum binding
[3] = target: bovine cardiac troponin T (bovine) (UniProt P13789)

Substance | EC50 [1] | EC50 [2] | relative amounts of intact and NH2-terminal truncated cTnT, densitometry of mAb CT3 Western blots of µ-calpain treated bovine cardiac myofibrils (% intact cTnT) [3]
intact mouse cardiac troponin T (TnT4), expressed in E. coli (from UniProt P50752) | 13.5 nM | 15.3 nM | –
NH2-terminal truncated mouse cardiac troponin T (McTnT-ND72-291), reconstructed and expressed in E. coli (from UniProt P50752) | 9.73 nM | 8.73 nM | –
µ-calpain (Calbiochem) (enzyme) | – | – | 1.5
